Laboratory results reported in US20080166293A1 (UAB RESEARCH FOUNDATION, published 2008).

Tests used:
[1] = biological target: T1, human transferrin receptor (hTfR) (human, UniProt P02786 1-760); assay: synthetic peptide added to CEF+hTfR cells before HAIYPRH phage; titer of bound phage
T1 construct: whole, on cells; Always presented on CEF+hTfR cells; also called CEF+hTfR cells
Method: (§1) Binding and Competition Studies: Purified phage populations were amplified and were verified to be homogenous through DNA sequencing. Cells were prepared for binding as was described for biopanning procedures. Preparations of plaque-purified and titered phage (1×10¹¹) were incubated in serum-free Opti-MEM on either CEF or CEF+hTfR cells at 4° C. for 1 hour. The cells were washed repeatedly with Opti-MEM and bound phage were eluted with low pH buffer and subsequently titered. […] Multiple trials were completed and average titers and standard deviations determined. The titers determined on CEF+hTfR cells were divided by the titers determined on CEF cells and […] fold over control data points.

[2] = biological target: T1, human transferrin receptor (hTfR); assay: synthetic peptide added to CEF+hTfR cells before … phage; titer of bound phage
Method: as §1

T1 sequence (P02786 whole entry): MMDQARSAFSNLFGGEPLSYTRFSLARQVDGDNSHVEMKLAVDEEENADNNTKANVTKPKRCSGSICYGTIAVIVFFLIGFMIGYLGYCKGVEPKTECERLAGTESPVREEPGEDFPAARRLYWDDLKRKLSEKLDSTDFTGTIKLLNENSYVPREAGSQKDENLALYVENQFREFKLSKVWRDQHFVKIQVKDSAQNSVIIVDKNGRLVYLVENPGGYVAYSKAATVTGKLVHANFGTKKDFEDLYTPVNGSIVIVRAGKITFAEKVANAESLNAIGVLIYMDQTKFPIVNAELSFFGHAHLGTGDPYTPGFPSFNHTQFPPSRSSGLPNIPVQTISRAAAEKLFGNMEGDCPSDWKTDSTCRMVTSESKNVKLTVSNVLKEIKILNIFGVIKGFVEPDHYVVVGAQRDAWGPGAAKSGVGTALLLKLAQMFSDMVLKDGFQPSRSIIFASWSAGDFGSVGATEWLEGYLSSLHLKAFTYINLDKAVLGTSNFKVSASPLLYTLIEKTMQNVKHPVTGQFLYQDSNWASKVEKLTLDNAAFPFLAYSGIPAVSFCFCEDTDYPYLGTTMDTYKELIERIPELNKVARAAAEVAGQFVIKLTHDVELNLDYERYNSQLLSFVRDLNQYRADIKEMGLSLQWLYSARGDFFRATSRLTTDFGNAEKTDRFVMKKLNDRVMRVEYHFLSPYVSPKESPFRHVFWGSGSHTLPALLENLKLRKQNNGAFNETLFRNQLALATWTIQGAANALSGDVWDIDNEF

Row | binding result [1] | binding result [2] | Binder
1 | binds | – | HAIYPRH (Synthetic peptide, HPLC purified; also called 7-mer) [HAIYPRH (Seq. ID No. 1) peptide]
2 | – | binds | THRPPMWSPVWP (Synthetic peptide, HPLC purified; also called 12-mer) [THRPPMWSPVWP (Seq. ID No. 2) peptide]
